# Reference: patent US20240100176A1 (Eli Lilly, published 2024)
# T1: human IL-4Rα on cells (human PBMC B cells and CD4+ T cells, Daudi cells, HEK-Blue IL-4/IL-13 cells, myeloid … (human, UniProt P24394 26-825))
# T1 sequence: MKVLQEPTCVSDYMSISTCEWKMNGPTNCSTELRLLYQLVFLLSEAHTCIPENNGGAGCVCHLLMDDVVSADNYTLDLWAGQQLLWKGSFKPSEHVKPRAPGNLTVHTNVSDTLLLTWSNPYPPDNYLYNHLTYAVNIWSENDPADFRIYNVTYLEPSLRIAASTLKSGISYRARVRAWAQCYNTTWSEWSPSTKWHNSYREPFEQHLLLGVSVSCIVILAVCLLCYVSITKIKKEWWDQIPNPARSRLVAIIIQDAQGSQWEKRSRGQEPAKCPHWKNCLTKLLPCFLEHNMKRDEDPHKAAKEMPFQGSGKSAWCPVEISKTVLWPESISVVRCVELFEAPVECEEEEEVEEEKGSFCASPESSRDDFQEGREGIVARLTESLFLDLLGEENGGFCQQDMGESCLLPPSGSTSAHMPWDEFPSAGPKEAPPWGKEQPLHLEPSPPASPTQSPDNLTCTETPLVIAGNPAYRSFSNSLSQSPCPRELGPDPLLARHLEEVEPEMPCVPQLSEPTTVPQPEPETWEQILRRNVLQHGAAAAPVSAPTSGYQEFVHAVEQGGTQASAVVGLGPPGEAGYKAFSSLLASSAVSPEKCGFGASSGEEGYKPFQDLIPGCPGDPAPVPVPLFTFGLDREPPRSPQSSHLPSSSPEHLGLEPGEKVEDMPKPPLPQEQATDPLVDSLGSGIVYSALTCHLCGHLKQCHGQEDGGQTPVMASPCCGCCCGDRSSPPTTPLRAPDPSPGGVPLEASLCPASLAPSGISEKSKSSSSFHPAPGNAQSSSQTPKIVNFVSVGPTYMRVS
# B1: anti-human IL-4Rα antibody Ab1 (antibody, human IgG4 S228P, kappa)
# heavy: QVQLVESGGGLVQPGGSLRLSCVASGFTFSHSSMNWVRQAPGKGLEWVSYISRATGAVYYADSVKGRFTISRDNAKNSLYLQMNSLRDEDTAVYYCAREPVFDYWGQGTLVTVSSASTKGPCVFPLAPCSRSTSESTAALGCLVKDYFPEPVTVSWNSGALTSGVHTFPAVLQSSGLYSLSSVVTVPSSSLGTKTYTCNVDHKPSNTKVDKRVESKYGPPCPPCPAPEFLGGPSVFLFPPKPKDTLMISRTPEVTCVVVDVSQEDPEVKFNWYVDGVEVHNAKTKPREEQFNSTYRVVSVLTVLHQDWLNGKEYKCKVSNKGLPSSIEKTISKAKGQPREPQVYTLPPSREEMTKNQVSLTCLVKGFYPSDICVEWESNGQPENNYKTTPPVLDSDGSFFLYSRLTVDKSRWQQGNVFSCSVMHEALHNHYTQKSLSLSLG
# light: DIQMTQSPSAMSASVGDRVTITCRASQDISNYLAWFQQKPGKVPTRLIYAASSLQSGVPSRFSGSGSGTEFTLTISSLQPEDFATYYCLQWSSYPRTFGQGTKVEIKRTVAAPSVFIFPPSDEQLKSGTASVVCLLNNFYPREAKVQWKVDNALQSGNSQESVTEQDSKDSTYSLSSTLTLSKADYEKHKVYACEVTHQGLSSPVTKSFNRGEC
# notes: human kappa light chain; also called anti-human IL-4Rα Ab1; unconjugated Ab1
# Key:
# [1] = target: T2, hexahistidine tagged human IL-4Rα ECD H107A (human, UniProt P24394 26-232); experiment: capture ELISA: Ab1 on anti-human IgG Fc, His-tagged receptor at 0.04 µg/mL, anti-His HRP
# T2 construct: not shown: hexahistidine tag
# Text: (§1) Example 2d. […] Briefly, thirty surface amino acid residue substitutions were introduced individually into hexahistidine tagged human IL-4Rα extra cellular domain (ECD) as follows: K2D, E6R, K22D, P26R, T31R, F41A, L42G, L43G, E45R, E52R, G56R, D66R, A71R, Q82G, K87D, E94R, H107A, D108R, P124R, D125R, D143R, R148D, L155R, R160D, S164R, S168R, Q181R, P192R, K195D, or H197G. Each mutant protein having a single amino acid residue substitution as described above was transiently expressed in CHO cells and purified using standard immobilized metal affinity chromatography techniques. […] The plates were then washed 3 times with PBST and the exemplified human IL-4Rα antibody was added to the wells at a final concentration of 1 μg/mL in PBS-casein and incubated for 1 hour at room temperature. The plates were washed 3 times with PBST, the IL-4Rα mutant proteins were serially diluted 5-fold from 1 μg/mL for 3 points. in PBS-casein and added to the plate at 50 μL/well and incubated for 1 hour at room temperature. The plates were washed 3 times with PBST and a 1000-fold dilution of anti-histidine tag antibody HRP conjugate (R&D Systems, Cat. #MAB050H) in PBS-casein was added and incubated for 45 minutes at room temperature. The plates were washed 3 times, TMB substrate (Pierce, Cat. #34028) was added per manufacturer instructions, the reaction was quenched with H₂SO₄, and absorbance was read at 450 nm on an ELISA plate reader.
# [2] = target: T3, hexahistidine tagged human IL-4Rα ECD L42G (human, UniProt P24394 26-232); experiment: as above
# T3 construct: not shown: hexahistidine tag
# Text: as §1
# [3] = target: T4, hexahistidine tagged human IL-4Rα ECD P124R (human, UniProt P24394 26-232); experiment: as above
# T4 construct: not shown: hexahistidine tag
# Text: as §1
# [4] = target: T1, human IL-4Rα on cells (human PBMC B …); experiment: cell-based or functional assay
# [5] = target: T5, hexahistidine tagged human IL-4Rα ECD T108R (human, UniProt P24394 26-232); experiment: capture ELISA: Ab1 on anti-human IgG Fc, His-tagged receptor at 0.2 µg/mL, anti-His HRP
# T5 construct: also called D108R; not shown: hexahistidine tag
# [6] = target: T6, hexahistidine tagged human IL-4Rα ECD S164R (human, UniProt P24394 26-232); experiment: as above
# T6 construct: not shown: hexahistidine tag
# Text: as §1
# [7] = target: T7, hexahistidine tagged human IL-4Rα ECD E52R (human, UniProt P24394 26-232); experiment: as above
# T7 construct: not shown: hexahistidine tag
# Text: as §1
# [8] = target: T2, hexahistidine tagged human IL-4Rα ECD …; experiment: as above
# Text: as §1
# [9] = target: T8, hexahistidine tagged human IL-4Rα ECD S168R (human, UniProt P24394 26-232); experiment: as above
# T8 construct: not shown: hexahistidine tag
# Text: as §1
# [10] = target: T9, hexahistidine tagged human IL-4Rα ECD E6R (human, UniProt P24394 26-232); experiment: as above
# T9 construct: not shown: hexahistidine tag
# Text: as §1
# [11] = target: T10, hexahistidine tagged human IL-4Rα ECD K2D (human, UniProt P24394 26-232); experiment: as above
# T10 construct: not shown: hexahistidine tag
# Text: as §1
# [12] = target: T11, hexahistidine tagged human IL-4Rα ECD E45R (human, UniProt P24394 26-232); experiment: as above
# T11 construct: not shown: hexahistidine tag
# Text: as §1
# T2 sequence (P24394 26-232 H132A): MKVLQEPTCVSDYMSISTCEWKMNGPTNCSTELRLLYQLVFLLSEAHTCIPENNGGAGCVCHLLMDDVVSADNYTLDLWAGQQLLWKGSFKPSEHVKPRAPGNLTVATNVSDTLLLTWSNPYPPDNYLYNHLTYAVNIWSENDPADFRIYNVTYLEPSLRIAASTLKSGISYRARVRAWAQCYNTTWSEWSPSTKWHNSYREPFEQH
# T10 sequence (P24394 other isoform, or with tags, fused parts or gaps): as the sequence (P24394 26-232 H132A) above, with K2D, A107H counted along it
# T8 sequence (P24394 26-232 S193R): as the sequence (P24394 26-232 H132A) above, with A107H, S168R counted along it
# T6 sequence (P24394 26-232 S189R): as the sequence (P24394 26-232 H132A) above, with A107H, S164R counted along it
# T5 sequence (P24394 26-232 T133R): as the sequence (P24394 26-232 H132A) above, with A107H, T108R counted along it
# T11 sequence (P24394 26-232 E70R): as the sequence (P24394 26-232 H132A) above, with E45R, A107H counted along it
# T7 sequence (P24394 26-232 E77R): as the sequence (P24394 26-232 H132A) above, with E52R, A107H counted along it
# T9 sequence (P24394 other isoform, or with tags, fused parts or gaps): as the sequence (P24394 26-232 H132A) above, with E6R, A107H counted along it
binder,measurement,setting,value
B1,ELISA (OD450),[1],1.42 OD450
same,ELISA (OD450),[2],0.965 OD450
same,ELISA (OD450),[3],1.16 OD450
same,IL-4 IC50 (nM): inhibition of IL-4 induced SEAP activity in HEK-Blue IL-4R and IL-13R expressing cells,[4],0.08 nM
same,IL-13 IC50 (nM): inhibition of IL-13 induced SEAP activity in HEK-Blue IL-4R and IL-13R expressing cells,[4],0.67 nM
same,ELISA (OD450),[5],1.82 OD450
same,ELISA (OD450),[6],1.77 OD450
same,ELISA (OD450),[7],1.71 OD450
same,ELISA (OD450),[8],1.84 OD450
same,ELISA (OD450),[9],1.71 OD450
same,ELISA (OD450),[10],1.5 OD450
same,ELISA (OD450),[11],1.61 OD450
same,ELISA (OD450),[12],1.86 OD450
